# Measured values taken from paper PMC12102759 (2025).
# B1: NOTCH4 peptide 1606-1621 (Neurogenic locus notch homolog protein 4), 16-mer library wild type / NSP9 (ORF1ab Nsp9, residues 4141-4253) (parent complex)
# chain 1: QGAWLGAPEPWEPLLD
# chain 2: NNELSPVALRQMSCAAGTTQTACTDDNALAYYNTTKGGRFVLALLSDLQDLKWARFPKSDGTGTIYTELEPPCRFVTDTPKGPKVKYLYFIKGLNNLNRGMVLGSLAATVRLQ
# Variants of: B1
# Assay: bait immobilised on MaxiSorp plates (10 µg), library pre-cleared on GST, 2 h binding at 4 °C, five washes; one round per day, days 1-4; value from days 2 and 3
row,Variant,screen value
1,chain 1 QGAWLGAPEPWEPMLD [chain 1 L14M],"0.00305 average fractional NGS count over selection days 2 and 3 (reads of this peptide / all reads for the bait, averaged over …"
2,chain 1 QGAWLGAPEPWEPALD [chain 1 L14A],"0.00317 average fractional NGS count over selection days 2 and 3 (reads of this peptide / all reads for the bait, averaged over …"
3,chain 1 QGAWLGAPEPWEPTLD [chain 1 L14T],"0.00105 average fractional NGS count over selection days 2 and 3 (reads of this peptide / all reads for the bait, averaged over …"
4,chain 1 QGAWLGAPEPWEPYLD [chain 1 L14Y],"0.00146 average fractional NGS count over selection days 2 and 3 (reads of this peptide / all reads for the bait, averaged over …"
5,chain 1 QGAWIGAPEPWEPLLD [chain 1 L5I],"0.000857 average fractional NGS count over selection days 2 and 3 (reads of this peptide / all reads for the bait, averaged over …"
6,chain 1 QGAWLGAMEPWEPLLD [chain 1 P8M],"0.00044 average fractional NGS count over selection days 2 and 3 (reads of this peptide / all reads for the bait, averaged over …"
7,chain 1 QGAWLGASEPWEPLLD [chain 1 P8S],"0.00076 average fractional NGS count over selection days 2 and 3 (reads of this peptide / all reads for the bait, averaged over …"
8,chain 1 QGAWLGAEEPWEPLLD [chain 1 P8E],"0.000231 average fractional NGS count over selection days 2 and 3 (reads of this peptide / all reads for the bait, averaged over …"
9,chain 1 QGAWLGAIEPWEPLLD [chain 1 P8I],"0.000952 average fractional NGS count over selection days 2 and 3 (reads of this peptide / all reads for the bait, averaged over …"
10,chain 1 QGAWLGAFEPWEPLLD [chain 1 P8F],"0.000628 average fractional NGS count over selection days 2 and 3 (reads of this peptide / all reads for the bait, averaged over …"
11,chain 1 QGAYLGAPEPWEPLLD [chain 1 W4Y],"0.000452 average fractional NGS count over selection days 2 and 3 (reads of this peptide / all reads for the bait, averaged over …"
12,chain 1 QGAWLGEPEPWEPLLD [chain 1 A7E],"0.000192 average fractional NGS count over selection days 2 and 3 (reads of this peptide / all reads for the bait, averaged over …"
13,chain 1 QGAWLGRPEPWEPLLD [chain 1 A7R],"0.000186 average fractional NGS count over selection days 2 and 3 (reads of this peptide / all reads for the bait, averaged over …"
14,chain 1 QGAWLGHPEPWEPLLD [chain 1 A7H],"0.0144 average fractional NGS count over selection days 2 and 3 (reads of this peptide / all reads for the bait, averaged over …"
15,chain 1 QGAWLGDPEPWEPLLD [chain 1 A7D],"0.00053 average fractional NGS count over selection days 2 and 3 (reads of this peptide / all reads for the bait, averaged over …"
16,chain 1 QGAWLGQPEPWEPLLD [chain 1 A7Q],"0.00107 average fractional NGS count over selection days 2 and 3 (reads of this peptide / all reads for the bait, averaged over …"
17,chain 1 QGAWLGGPEPWEPLLD [chain 1 A7G],"0.00198 average fractional NGS count over selection days 2 and 3 (reads of this peptide / all reads for the bait, averaged over …"
18,chain 1 QGAWLGAPEPWEPLFD [chain 1 L15F],"0.000114 average fractional NGS count over selection days 2 and 3 (reads of this peptide / all reads for the bait, averaged over …"
19,chain 1 QGAWLGAPEPWEPLRD [chain 1 L15R],"0.000322 average fractional NGS count over selection days 2 and 3 (reads of this peptide / all reads for the bait, averaged over …"
20,chain 1 QGAWLGAPEPWEPLDD [chain 1 L15D],"0.000339 average fractional NGS count over selection days 2 and 3 (reads of this peptide / all reads for the bait, averaged over …"
21,chain 1 QGAWLGAPEPWEPLID [chain 1 L15I],"0.0135 average fractional NGS count over selection days 2 and 3 (reads of this peptide / all reads for the bait, averaged over …"

row,Variant,screen value
1,chain 1 QGAWLGAPEPWEPLPD [chain 1 L15P],"0.000417 average fractional NGS count over selection days 2 and 3 (reads of this peptide / all reads for the bait, averaged over …"
2,chain 1 QGAWLGAPEPWTPLLD [chain 1 E12T],"0.00258 average fractional NGS count over selection days 2 and 3 (reads of this peptide / all reads for the bait, averaged over …"
3,chain 1 QGAWLGAPEPWYPLLD [chain 1 E12Y],"0.00153 average fractional NGS count over selection days 2 and 3 (reads of this peptide / all reads for the bait, averaged over …"
4,chain 1 QGAWLGAPEPWWPLLD [chain 1 E12W],"0.0479 average fractional NGS count over selection days 2 and 3 (reads of this peptide / all reads for the bait, averaged over …"
5,chain 1 QGAWLGAPEPWHPLLD [chain 1 E12H],"8.76e-05 average fractional NGS count over selection days 2 and 3 (reads of this peptide / all reads for the bait, averaged over …"
6,chain 1 QGAWLGAPEPWQPLLD [chain 1 E12Q],"0.00173 average fractional NGS count over selection days 2 and 3 (reads of this peptide / all reads for the bait, averaged over …"
7,chain 1 QGAWLGAPEPWGPLLD [chain 1 E12G],"0.00333 average fractional NGS count over selection days 2 and 3 (reads of this peptide / all reads for the bait, averaged over …"
8,chain 1 QGAWLGAPEPWLPLLD [chain 1 E12L],"0.00277 average fractional NGS count over selection days 2 and 3 (reads of this peptide / all reads for the bait, averaged over …"
9,chain 1 QGAWLGAPWPWEPLLD [chain 1 E9W],"0.00272 average fractional NGS count over selection days 2 and 3 (reads of this peptide / all reads for the bait, averaged over …"
10,chain 1 QGAWLGAPTPWEPLLD [chain 1 E9T],"0.00217 average fractional NGS count over selection days 2 and 3 (reads of this peptide / all reads for the bait, averaged over …"
11,chain 1 QGAWLGAPAPWEPLLD [chain 1 E9A],"0.000237 average fractional NGS count over selection days 2 and 3 (reads of this peptide / all reads for the bait, averaged over …"
12,chain 1 QGAWLGAPYPWEPLLD [chain 1 E9Y],"0.000233 average fractional NGS count over selection days 2 and 3 (reads of this peptide / all reads for the bait, averaged over …"
13,chain 1 QGAWLGAPGPWEPLLD [chain 1 E9G],"0.00198 average fractional NGS count over selection days 2 and 3 (reads of this peptide / all reads for the bait, averaged over …"
14,chain 1 QGAWLGAPLPWEPLLD [chain 1 E9L],"0.0321 average fractional NGS count over selection days 2 and 3 (reads of this peptide / all reads for the bait, averaged over …"
15,chain 1 QGAWLGAPKPWEPLLD [chain 1 E9K],"0.000266 average fractional NGS count over selection days 2 and 3 (reads of this peptide / all reads for the bait, averaged over …"
16,chain 1 QGAWLGAPIPWEPLLD [chain 1 E9I],"0.00116 average fractional NGS count over selection days 2 and 3 (reads of this peptide / all reads for the bait, averaged over …"
17,chain 1 QGAWLGAPEMWEPLLD [chain 1 P10M],"0.0078 average fractional NGS count over selection days 2 and 3 (reads of this peptide / all reads for the bait, averaged over …"
18,chain 1 QGAWLGAPELWEPLLD [chain 1 P10L],"0.00033 average fractional NGS count over selection days 2 and 3 (reads of this peptide / all reads for the bait, averaged over …"
19,chain 1 QGAWLGAPEWWEPLLD [chain 1 P10W],"0.00034 average fractional NGS count over selection days 2 and 3 (reads of this peptide / all reads for the bait, averaged over …"
20,chain 1 QGAWLGAPENWEPLLD [chain 1 P10N],"0.000425 average fractional NGS count over selection days 2 and 3 (reads of this peptide / all reads for the bait, averaged over …"
21,chain 1 QGAWLGAPEHWEPLLD [chain 1 P10H],"0.000471 average fractional NGS count over selection days 2 and 3 (reads of this peptide / all reads for the bait, averaged over …"

row,Variant,screen value
1,chain 1 QGAWLGAPEKWEPLLD [chain 1 P10K],"0.00223 average fractional NGS count over selection days 2 and 3 (reads of this peptide / all reads for the bait, averaged over …"
2,chain 1 QGAWLGAPESWEPLLD [chain 1 P10S],"0.000591 average fractional NGS count over selection days 2 and 3 (reads of this peptide / all reads for the bait, averaged over …"
3,chain 1 QGAWLGAPERWEPLLD [chain 1 P10R],"0.00113 average fractional NGS count over selection days 2 and 3 (reads of this peptide / all reads for the bait, averaged over …"
4,chain 1 QGFWLGAPEPWEPLLD [chain 1 A3F],"0.00137 average fractional NGS count over selection days 2 and 3 (reads of this peptide / all reads for the bait, averaged over …"
5,chain 1 QGMWLGAPEPWEPLLD [chain 1 A3M],"0.0101 average fractional NGS count over selection days 2 and 3 (reads of this peptide / all reads for the bait, averaged over …"
6,chain 1 QGYWLGAPEPWEPLLD [chain 1 A3Y],"0.00272 average fractional NGS count over selection days 2 and 3 (reads of this peptide / all reads for the bait, averaged over …"
7,chain 1 YGAWLGAPEPWEPLLD [chain 1 Q1Y],"0.00151 average fractional NGS count over selection days 2 and 3 (reads of this peptide / all reads for the bait, averaged over …"
8,chain 1 AGAWLGAPEPWEPLLD [chain 1 Q1A],"0.00674 average fractional NGS count over selection days 2 and 3 (reads of this peptide / all reads for the bait, averaged over …"
9,chain 1 EGAWLGAPEPWEPLLD [chain 1 Q1E],"0.00488 average fractional NGS count over selection days 2 and 3 (reads of this peptide / all reads for the bait, averaged over …"
10,chain 1 IGAWLGAPEPWEPLLD [chain 1 Q1I],"0.000162 average fractional NGS count over selection days 2 and 3 (reads of this peptide / all reads for the bait, averaged over …"
11,chain 1 HGAWLGAPEPWEPLLD [chain 1 Q1H],"0.000824 average fractional NGS count over selection days 2 and 3 (reads of this peptide / all reads for the bait, averaged over …"
12,chain 1 TGAWLGAPEPWEPLLD [chain 1 Q1T],"0.000204 average fractional NGS count over selection days 2 and 3 (reads of this peptide / all reads for the bait, averaged over …"
13,chain 1 LGAWLGAPEPWEPLLD [chain 1 Q1L],"0.000598 average fractional NGS count over selection days 2 and 3 (reads of this peptide / all reads for the bait, averaged over …"
14,chain 1 QGAWLPAPEPWEPLLD [chain 1 G6P],"0.00151 average fractional NGS count over selection days 2 and 3 (reads of this peptide / all reads for the bait, averaged over …"
15,chain 1 QGAWLAAPEPWEPLLD [chain 1 G6A],"9.6e-05 average fractional NGS count over selection days 2 and 3 (reads of this peptide / all reads for the bait, averaged over …"
16,chain 1 QGAWLGAPEPLEPLLD [chain 1 W11L],"0.0119 average fractional NGS count over selection days 2 and 3 (reads of this peptide / all reads for the bait, averaged over …"
17,chain 1 QGAWLGAPEPEEPLLD [chain 1 W11E],"0.00215 average fractional NGS count over selection days 2 and 3 (reads of this peptide / all reads for the bait, averaged over …"
18,chain 1 QGAWLGAPEPDEPLLD [chain 1 W11D],"0.000384 average fractional NGS count over selection days 2 and 3 (reads of this peptide / all reads for the bait, averaged over …"
19,chain 1 QGAWLGAPEPHEPLLD [chain 1 W11H],"0.00345 average fractional NGS count over selection days 2 and 3 (reads of this peptide / all reads for the bait, averaged over …"
20,chain 1 QGAWLGAPEPMEPLLD [chain 1 W11M],"0.0273 average fractional NGS count over selection days 2 and 3 (reads of this peptide / all reads for the bait, averaged over …"
